Where two headings read alike, the source gives them in different places.
Legend:
[1] = target: PelC (P. aeruginosa PAO1, PA3062), outer membrane lipoprotein (Pseudomonas aeruginosa PAO1); assay: cryo-EM structure
[2] = target: PelC (P. aeruginosa PAO1, PA3062), outer membrane lipoprotein (Pseudomonas aeruginosa PAO1); assay: cryo-EM structure; remark: listed apart in the source

Substance: PelC (P. aeruginosa PAO1, PA3062), outer membrane lipoprotein (natural protein)
- stoichiometry N [1]: 12
- stoichiometry N [2]: 12
